The results in this text go back to patent US20240209106A1 (BEIGENE SWITZERLAND, published 2024).

The chains are these.
B1: BE-718 (A-BGA-5623-BGA-5623) (bispecific antibody, human IgG1, kappa)
heavy: QVQLVQSGAEVKKPGASVKVSCKASGYIFTSYYLHWVRQAPGQGLEWIGYINPQTGKTSYAQKFQGRVTMTRDTSTSTVYMELSSLRSEDTAVYYCAREYGNYNYPLDYWGQGTLVTVSSASTKGPSVFPLAPSSKSTSGGTAALGCLVKDYFPEPVTVSWNSGALTSGVHTFPAVLQSSGLYSLSSVVTVPSSSLGTQTYICNVNHKPSNTKVDKKVEPKSCDKTHTCPPCPAPPAAGPSVFLFPPKPKDTLMISRTPEVTCVVVDVSHEDPEVKFNWYVDGVEVHNAKTKPREEQYNSTYRVVSVLTVLHQDWLNGKEYKCKVSNKALAAPIEKTISKAKGQPREPQVYTLPPSREEMTKNQVSLTCLVKGFYPSDIAVEWESNGQPENNYKTTPPVLDSDGSFFLYSKLTVDKSRWQQGNVFSCSVMHEALHNHYTQKSLSLSPGKGGGGSEVQLLESGGGLVQPGGSLRLSCAASGFTVSAEDVGWVRQAPGKGLEWVSAILDKGGSTYYAESVKGRFTISRDNAKNTLYLQMSSLRAEDTAVYYCARIVYHAGGGVTFDTRGQGTQVTVSSGGGGSEVQLLESGGGLVQPGGSLRLSCAASGFTVSAEDVGWVRQAPGKGLEWVSAILDKGGSTYYAESVKGRFTISRDNAKNTLYLQMSSLRAEDTAVYYCARIVYHAGGGVTFDTRGQGTQVTVSS
light: DIQMTQSPSSLSASVGDRVTITCRASENQYGYLAWYQQKPGKVPKLLIYNYKNLVEGVPSRFSGSGSGTDFTLTISSLQPEDVATYYCQHHLGTPYTFGQGTKVEIKRTVAAPSVFIFPPSDEQLKSGTASVVCLLNNFYPREAKVQWKVDNALQSGNSQESVTEQDSKDSTYSLSSTLTLSKADYEKHKVYACEVTHQGLSSPVTKSFNRGEC
B2: BE-740 (A-IgG1-BGA-5623) (bispecific antibody)
heavy: not shown
light: DIQMTQSPSSLSASVGDRVTITCRASENQYGYLAWYQQKPGKVPKLLIYNYKNLVEGVPSRFSGSGSGTDFTLTISSLQPEDVATYYCQHHLGTPYTFGQGTKVEIKRTVAAPSVFIFPPSDEQLKSGTASVVCLLNNFYPREAKVQWKVDNALQSGNSQESVTEQDSKDSTYSLSSTLTLSKADYEKHKVYACEVTHQGLSSPVTKSFNRGEC
B3: Format A - BGA-3285 (bispecific antibody, human IgG1, kappa)
heavy: QVQLVQSGAEVKKPGASVKVSCKASGYIFTSYYLHWVRQAPGQGLEWIGYINPQTGKTSYAQKFQGRVTMTRDTSTSTVYMELSSLRSEDTAVYYCAREYGNYNYPLDYWGQGTLVTVSSASTKGPSVFPLAPSSKSTSGGTAALGCLVKDYFPEPVTVSWNSGALTSGVHTFPAVLQSSGLYSLSSVVTVPSSSLGTQTYICNVNHKPSNTKVDKKVEPKSCDKTHTCPPCPAPPAAGPSVFLFPPKPKDTLMISRTPEVTCVVVDVSHEDPEVKFNWYVDGVEVHNAKTKPREEQYNSTYRVVSVLTVLHQDWLNGKEYKCKVSNKALAAPIEKTISKAKGQPREPQVYTLPPSREEMTKNQVSLTCLVKGFYPSDIAVEWESNGQPENNYKTTPPVLDSDGSFFLYSKLTVDKSRWQQGNVFSCSVMHEALHNHYTQKSLSLSPGKGGGGSEVQLLESGGGLVQPGGSLRLSCAASGFTISAEDVGWVRQAPGKGLEWVSAILDFGGSTYYAESVKGRFTISRDNAKNTLYLQMSSLRAEDTAVYYCARVVYHAGGGVTFDTRGQGTQVTVSS
light: DIQMTQSPSSLSASVGDRVTITCRASENQYGYLAWYQQKPGKVPKLLIYNYKNLVEGVPSRFSGSGSGTDFTLTISSLQPEDVATYYCQHHLGTPYTFGQGTKVEIKRTVAAPSVFIFPPSDEQLKSGTASVVCLLNNFYPREAKVQWKVDNALQSGNSQESVTEQDSKDSTYSLSSTLTLSKADYEKHKVYACEVTHQGLSSPVTKSFNRGEC
notes: Light chain by the description of Format A
B4: Format A - BGA-5385 (bispecific antibody, human IgG1, kappa)
heavy: QVQLVQSGAEVKKPGASVKVSCKASGYIFTSYYLHWVRQAPGQGLEWIGYINPQTGKTSYAQKFQGRVTMTRDTSTSTVYMELSSLRSEDTAVYYCAREYGNYNYPLDYWGQGTLVTVSSASTKGPSVFPLAPSSKSTSGGTAALGCLVKDYFPEPVTVSWNSGALTSGVHTFPAVLQSSGLYSLSSVVTVPSSSLGTQTYICNVNHKPSNTKVDKKVEPKSCDKTHTCPPCPAPPAAGPSVFLFPPKPKDTLMISRTPEVTCVVVDVSHEDPEVKFNWYVDGVEVHNAKTKPREEQYNSTYRVVSVLTVLHQDWLNGKEYKCKVSNKALAAPIEKTISKAKGQPREPQVYTLPPSREEMTKNQVSLTCLVKGFYPSDIAVEWESNGQPENNYKTTPPVLDSDGSFFLYSKLTVDKSRWQQGNVFSCSVMHEALHNHYTQKSLSLSPGKGGGGSEVQLLESGGGLVQPGGSLRLSCAASGFTLSAEDVGWVRQAPGKGLEWVSAILDHGGSTYYAESVKGRFTISRDNAKNTLYLQMSSLRAEDTAVYYCARVIYHAGGGVTFDTRGQGTQVTVSS
light: DIQMTQSPSSLSASVGDRVTITCRASENQYGYLAWYQQKPGKVPKLLIYNYKNLVEGVPSRFSGSGSGTDFTLTISSLQPEDVATYYCQHHLGTPYTFGQGTKVEIKRTVAAPSVFIFPPSDEQLKSGTASVVCLLNNFYPREAKVQWKVDNALQSGNSQESVTEQDSKDSTYSLSSTLTLSKADYEKHKVYACEVTHQGLSSPVTKSFNRGEC
notes: as for B3
B5: Format A - BGA-3953 (bispecific antibody, human IgG1, kappa)
heavy: QVQLVQSGAEVKKPGASVKVSCKASGYIFTSYYLHWVRQAPGQGLEWIGYINPQTGKTSYAQKFQGRVTMTRDTSTSTVYMELSSLRSEDTAVYYCAREYGNYNYPLDYWGQGTLVTVSSASTKGPSVFPLAPSSKSTSGGTAALGCLVKDYFPEPVTVSWNSGALTSGVHTFPAVLQSSGLYSLSSVVTVPSSSLGTQTYICNVNHKPSNTKVDKKVEPKSCDKTHTCPPCPAPPAAGPSVFLFPPKPKDTLMISRTPEVTCVVVDVSHEDPEVKFNWYVDGVEVHNAKTKPREEQYNSTYRVVSVLTVLHQDWLNGKEYKCKVSNKALAAPIEKTISKAKGQPREPQVYTLPPSREEMTKNQVSLTCLVKGFYPSDIAVEWESNGQPENNYKTTPPVLDSDGSFFLYSKLTVDKSRWQQGNVFSCSVMHEALHNHYTQKSLSLSPGKGGGGSEVQLLESGGGLVQPGGSLRLSCAASGFTVSAEDVGWVRQAPGKGLEWVSAILDSGGSTYYAESVKGRFTISRDNAKNTLYLQMSSLRAEDTAVYYCARIVYHAGGGVTFDTRGQGTQVTVSS
light: DIQMTQSPSSLSASVGDRVTITCRASENQYGYLAWYQQKPGKVPKLLIYNYKNLVEGVPSRFSGSGSGTDFTLTISSLQPEDVATYYCQHHLGTPYTFGQGTKVEIKRTVAAPSVFIFPPSDEQLKSGTASVVCLLNNFYPREAKVQWKVDNALQSGNSQESVTEQDSKDSTYSLSSTLTLSKADYEKHKVYACEVTHQGLSSPVTKSFNRGEC
notes: as for B3
B6: Format A - BGA-8425 (bispecific antibody, human IgG1, kappa)
heavy: QVQLVQSGAEVKKPGASVKVSCKASGYIFTSYYLHWVRQAPGQGLEWIGYINPQTGKTSYAQKFQGRVTMTRDTSTSTVYMELSSLRSEDTAVYYCAREYGNYNYPLDYWGQGTLVTVSSASTKGPSVFPLAPSSKSTSGGTAALGCLVKDYFPEPVTVSWNSGALTSGVHTFPAVLQSSGLYSLSSVVTVPSSSLGTQTYICNVNHKPSNTKVDKKVEPKSCDKTHTCPPCPAPPAAGPSVFLFPPKPKDTLMISRTPEVTCVVVDVSHEDPEVKFNWYVDGVEVHNAKTKPREEQYNSTYRVVSVLTVLHQDWLNGKEYKCKVSNKALAAPIEKTISKAKGQPREPQVYTLPPSREEMTKNQVSLTCLVKGFYPSDIAVEWESNGQPENNYKTTPPVLDSDGSFFLYSKLTVDKSRWQQGNVFSCSVMHEALHNHYTQKSLSLSPGKGGGGSEVQLLESGGGLVQPGGSLRLSCAASGFTLSAEDVGWVRQAPGKGLEWVSAILDSGGSTYYAESVKGRFTISRDNAKNTLYLQMSSLRAEDTAVYYCARVVYHAGGGVTYDYRGQGTQVTVSS
light: DIQMTQSPSSLSASVGDRVTITCRASENQYGYLAWYQQKPGKVPKLLIYNYKNLVEGVPSRFSGSGSGTDFTLTISSLQPEDVATYYCQHHLGTPYTFGQGTKVEIKRTVAAPSVFIFPPSDEQLKSGTASVVCLLNNFYPREAKVQWKVDNALQSGNSQESVTEQDSKDSTYSLSSTLTLSKADYEKHKVYACEVTHQGLSSPVTKSFNRGEC
notes: as for B3
B7: Format A - BGA-9468 (bispecific antibody, human IgG1, kappa)
heavy: QVQLVQSGAEVKKPGASVKVSCKASGYIFTSYYLHWVRQAPGQGLEWIGYINPQTGKTSYAQKFQGRVTMTRDTSTSTVYMELSSLRSEDTAVYYCAREYGNYNYPLDYWGQGTLVTVSSASTKGPSVFPLAPSSKSTSGGTAALGCLVKDYFPEPVTVSWNSGALTSGVHTFPAVLQSSGLYSLSSVVTVPSSSLGTQTYICNVNHKPSNTKVDKKVEPKSCDKTHTCPPCPAPPAAGPSVFLFPPKPKDTLMISRTPEVTCVVVDVSHEDPEVKFNWYVDGVEVHNAKTKPREEQYNSTYRVVSVLTVLHQDWLNGKEYKCKVSNKALAAPIEKTISKAKGQPREPQVYTLPPSREEMTKNQVSLTCLVKGFYPSDIAVEWESNGQPENNYKTTPPVLDSDGSFFLYSKLTVDKSRWQQGNVFSCSVMHEALHNHYTQKSLSLSPGKGGGGSEVQLLESGGGLVQPGGSLRLSCAASGFTVSAEDVGWVRQAPGKGLEWVSAILDSGGSTYYAESVKGRFTISRDNAKNTLYLQMSSLRAEDTAVYYCARVVYHSGGGVTFDLRGQGTQVTVSS
light: DIQMTQSPSSLSASVGDRVTITCRASENQYGYLAWYQQKPGKVPKLLIYNYKNLVEGVPSRFSGSGSGTDFTLTISSLQPEDVATYYCQHHLGTPYTFGQGTKVEIKRTVAAPSVFIFPPSDEQLKSGTASVVCLLNNFYPREAKVQWKVDNALQSGNSQESVTEQDSKDSTYSLSSTLTLSKADYEKHKVYACEVTHQGLSSPVTKSFNRGEC
notes: as for B3
B8: Format A - BGA-7746 (bispecific antibody, human IgG1, kappa)
heavy: QVQLVQSGAEVKKPGASVKVSCKASGYIFTSYYLHWVRQAPGQGLEWIGYINPQTGKTSYAQKFQGRVTMTRDTSTSTVYMELSSLRSEDTAVYYCAREYGNYNYPLDYWGQGTLVTVSSASTKGPSVFPLAPSSKSTSGGTAALGCLVKDYFPEPVTVSWNSGALTSGVHTFPAVLQSSGLYSLSSVVTVPSSSLGTQTYICNVNHKPSNTKVDKKVEPKSCDKTHTCPPCPAPPAAGPSVFLFPPKPKDTLMISRTPEVTCVVVDVSHEDPEVKFNWYVDGVEVHNAKTKPREEQYNSTYRVVSVLTVLHQDWLNGKEYKCKVSNKALAAPIEKTISKAKGQPREPQVYTLPPSREEMTKNQVSLTCLVKGFYPSDIAVEWESNGQPENNYKTTPPVLDSDGSFFLYSKLTVDKSRWQQGNVFSCSVMHEALHNHYTQKSLSLSPGKGGGGSEVQLLESGGGLVQPGGSLRLSCAASGFTVSAEDVGWVRQAPGKGLEWVSAILDFGGSTYYAESVKGRFTISRDNAKNTLYLQMSSLRAEDTAVYYCARVVYHAGGGVTFDTRGQGTQVTVSS
light: DIQMTQSPSSLSASVGDRVTITCRASENQYGYLAWYQQKPGKVPKLLIYNYKNLVEGVPSRFSGSGSGTDFTLTISSLQPEDVATYYCQHHLGTPYTFGQGTKVEIKRTVAAPSVFIFPPSDEQLKSGTASVVCLLNNFYPREAKVQWKVDNALQSGNSQESVTEQDSKDSTYSLSSTLTLSKADYEKHKVYACEVTHQGLSSPVTKSFNRGEC
notes: as for B3

human CD137 ECD-mIgG2a (human), sequence (chain, as listed by the source limits assumed): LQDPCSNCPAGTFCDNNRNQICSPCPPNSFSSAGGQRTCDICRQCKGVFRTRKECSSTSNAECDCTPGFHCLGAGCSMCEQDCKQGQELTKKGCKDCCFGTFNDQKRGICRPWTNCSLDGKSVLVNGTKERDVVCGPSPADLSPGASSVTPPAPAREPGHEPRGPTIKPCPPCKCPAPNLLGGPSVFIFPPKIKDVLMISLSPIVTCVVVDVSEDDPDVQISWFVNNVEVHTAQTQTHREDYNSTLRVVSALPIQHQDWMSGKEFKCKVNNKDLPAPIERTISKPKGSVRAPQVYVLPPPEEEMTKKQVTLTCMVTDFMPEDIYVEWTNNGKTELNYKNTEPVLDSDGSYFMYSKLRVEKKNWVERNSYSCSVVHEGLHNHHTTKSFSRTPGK

One experiment deals with full-length human CD137 (huCD137) (human, UniProt Q07011 24-255). The experiment in a line: cell-based or functional assay.
full-length human CD137 (huCD137), sequence (Q07011 24-255 limits assumed): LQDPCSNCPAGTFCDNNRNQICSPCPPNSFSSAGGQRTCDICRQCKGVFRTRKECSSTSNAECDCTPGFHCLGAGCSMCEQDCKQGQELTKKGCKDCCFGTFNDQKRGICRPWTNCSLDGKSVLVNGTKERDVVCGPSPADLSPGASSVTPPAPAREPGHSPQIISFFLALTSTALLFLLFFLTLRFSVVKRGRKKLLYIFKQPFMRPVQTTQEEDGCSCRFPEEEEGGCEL
For the molecule B1, the “Functional assay EC50 (ug/ml), in vitro CD137 activation (PBMC cytokine release)” value was 0.01 µg/mL.

For the molecule B2, the “Functional assay EC50 (ug/ml), in vitro CD137 activation (PBMC cytokine release)” value turned out to be 0.17 µg/mL.

The next experiment addresses human CD137 ECD-mIgG2a (human). The experiment is described as follows: SPR, multispecific antibody captured on anti-human IgG Fc chip, human CD137 ECD-mIgG2a flowed over.
Protocol: Briefly, anti-human IgG (Fc) antibody was immobilized on an activated CM5 biosensor chip (Cat.: BR100839, GE Life Sciences). Anti-huCD137 monoclonal antibodies or multispecific antibodies were flown through the chip surface and captured by anti-human IgG (Fc) antibody. […] The equilibrium dissociation constant (KD)) was calculated as the ratio koff/kₒₙ.
What is called Kd is the concentration at which binding is half-saturated. In turn, B3 returned a Kd of 798 nM.

B4 yielded a Kd of 154 nM.

B5 returned a Kd of 115 nM.

B6 displayed a Kd of 189 nM.

The molecule B7 displayed a Kd of 873 nM.

For B8, the affinity, expressed as Kd, was 245 nM.
